# Measurements reported in patent US20250270315A1 (ELPISCIENCE SUZHOU BIOPHARMA, published 2025).
# T1: C57BL/6 mouse SIRPα ECD recombinant protein (6×His tagged) (C57BL/6 mouse, UniProt P97797 32-373)
# T1 construct: extracellular domain; Bought from Biointron; not shown: 6×His tag
# T1 sequence (looked up): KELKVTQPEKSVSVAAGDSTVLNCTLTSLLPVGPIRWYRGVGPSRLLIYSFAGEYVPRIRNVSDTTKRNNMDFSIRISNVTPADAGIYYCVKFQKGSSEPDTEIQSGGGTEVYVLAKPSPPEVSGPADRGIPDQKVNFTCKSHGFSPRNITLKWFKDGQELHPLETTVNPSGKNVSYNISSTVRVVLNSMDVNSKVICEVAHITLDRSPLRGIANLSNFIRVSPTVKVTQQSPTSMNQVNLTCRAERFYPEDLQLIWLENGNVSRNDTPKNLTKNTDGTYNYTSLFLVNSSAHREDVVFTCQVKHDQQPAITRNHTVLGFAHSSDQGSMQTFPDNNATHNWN
# What was measured:
# [1] = target: T2, mFc tagged human SIRPα v1 ECD recombinant protein (human, UniProt P78324 31-373); assay: competitive ELISA binning, mFc-SIRPα v1 ECD; competitor hu1H9G4
# T2 construct: extracellular domain; Bought from Biointron; not shown: mouse IgG Fc (mFc) tag
# T2 sequence (P78324 31-373): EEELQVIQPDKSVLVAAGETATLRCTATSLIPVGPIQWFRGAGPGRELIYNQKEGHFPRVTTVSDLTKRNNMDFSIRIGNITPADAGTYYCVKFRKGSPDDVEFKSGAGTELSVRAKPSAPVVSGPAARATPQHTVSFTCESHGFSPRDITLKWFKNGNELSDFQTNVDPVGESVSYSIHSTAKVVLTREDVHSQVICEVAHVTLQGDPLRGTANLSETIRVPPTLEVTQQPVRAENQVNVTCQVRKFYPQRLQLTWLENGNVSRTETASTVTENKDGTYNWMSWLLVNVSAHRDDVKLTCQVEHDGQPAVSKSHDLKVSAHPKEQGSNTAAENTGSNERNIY
# Description: (§1) Competitive ELISA assay was used for epitope binning of purified chimeric antibodies. Briefly excessive competitor antibody and mFc tagged human SIRPα v1 ECD recombinant protein were co-incubated with ELISA microplate coated antibody. After washing, HRP labeled anti-mouse Fc 2nd antibody (Sigma) was added and incubated at 37° C. for 1 hour. Then, 100 μl/well of TMB solution (Biotechnology) was added. After incubation for 15 minutes at room temperature, the reaction was stopped by the addition of 50 μl of 1N HCl. OD 450 nm was read. Competition ratio was calculated. The antibodies that can compete each other for binding to SIRPα may have related binding epitopes.
# [2] = target: T2, mFc tagged human SIRPα v1 ECD …; assay: competitive ELISA binning, mFc-SIRPα v1 ECD; competitor 042c
# Description: as §1
# [3] = target: T3, human SIRPα v1 ECD recombinant protein (tag not given) (human, UniProt P78324 31-373); assay: competitive ELISA, mFc-CD47 ECD on coated SIRPα v1 ECD
# T3 construct: extracellular domain; also called biotin labeled soluble human SIRPα v1 ECD recombinant protein; ELISA microplate coated human SIRPα v1 ECD
# T3 sequence (P78324 31-373): as above
# Description: (§2) Competitive ELISA assay was used to determine whether the purified chimeric antibodies can block CD47 and SIRPα interaction. Briefly, antibody and mFc tagged human CD47 ECD recombinant protein were co-incubated with ELISA microplate coated human SIRPα v1 ECD (FIGS. 6A and 6B) or human SIRPα v2 ECD (FIGS. 7A and 7B) recombinant protein. After washing, HRP labeled anti-mouse Fc 2nd antibody (Sigma) was added and incubated at 37° C. for 1 hour. Then, 100 μl/well of TMB solution (Biotechnology) was added. After incubation for 15 minutes at room temperature, the reaction was stopped by the addition of 50 μl of 1N HCl. OD 450 nm was read. Blocking ratio was determined by blockade of human CD47 ECD recombinant protein binding to ELISA microplate coated human SIRPα ECD recombinant protein. Other than 005, all antibodies as tested can block interaction between human CD47 and different human SIRPα variants.
# [4] = target: T4, human SIRPα v2 ECD recombinant protein (tag not given) (human); assay: competitive ELISA, mFc-CD47 ECD on coated SIRPα v2 ECD
# T4 construct: extracellular domain; also called ELISA microplate coated human SIRPα v2 ECD
# Description: as §2
# [5] = target: T5, full length human SIRPα v1 stably expressed on CHOK1 or 293F cells (human, UniProt P78324 31-504); assay: FACS, CHOK1-hSIRPα v1 cells
# T5 construct: whole, on cells; also called CHOK1-human SIRPα v1; CHOK1-hSIRPα v1
# T5 sequence (P78324 31-504): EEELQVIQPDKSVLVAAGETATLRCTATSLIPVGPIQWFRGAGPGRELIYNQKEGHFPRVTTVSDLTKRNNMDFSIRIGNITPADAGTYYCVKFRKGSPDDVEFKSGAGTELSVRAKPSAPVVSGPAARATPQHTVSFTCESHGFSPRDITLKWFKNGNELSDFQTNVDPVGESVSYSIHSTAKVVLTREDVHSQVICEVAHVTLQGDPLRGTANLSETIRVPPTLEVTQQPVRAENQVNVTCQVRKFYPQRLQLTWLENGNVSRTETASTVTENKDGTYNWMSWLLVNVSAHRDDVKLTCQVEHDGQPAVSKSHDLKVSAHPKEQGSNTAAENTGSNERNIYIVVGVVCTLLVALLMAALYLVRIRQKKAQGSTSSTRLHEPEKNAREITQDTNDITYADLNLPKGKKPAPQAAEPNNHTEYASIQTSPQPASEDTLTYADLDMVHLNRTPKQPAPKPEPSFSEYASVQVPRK
# Source text: (§3) All the humanized antibodies as tested were confirmed to retain the similar activity as the parental antibody of 025c to bind to SIRP family members.
# [6] = target: T6, human SIRPβ stably expressed on CHOK1 cells (human, UniProt O00241 30-398); assay: FACS, CHOK1-hSIRPβ cells (columns c6 and c7 read as swapped)
# T6 construct: whole, on cells; also called CHOK1-human SIRPB; CHOK1-hSIRPβ
# T6 sequence (O00241 30-398): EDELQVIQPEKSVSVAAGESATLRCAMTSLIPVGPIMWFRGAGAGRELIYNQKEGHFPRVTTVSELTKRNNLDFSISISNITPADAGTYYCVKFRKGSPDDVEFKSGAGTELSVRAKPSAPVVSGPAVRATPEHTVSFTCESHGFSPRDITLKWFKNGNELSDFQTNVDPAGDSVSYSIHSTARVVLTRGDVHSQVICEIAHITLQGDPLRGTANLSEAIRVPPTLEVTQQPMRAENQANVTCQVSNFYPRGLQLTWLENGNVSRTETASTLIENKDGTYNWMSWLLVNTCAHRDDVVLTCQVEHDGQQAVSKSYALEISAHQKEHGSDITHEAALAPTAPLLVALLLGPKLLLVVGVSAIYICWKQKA
# Source text: as §3
# [7] = target: T6, human SIRPβ stably expressed on CHOK1 …; assay: FACS, CHOK1 cells stably expressing human SIRPβ
# Source text: as §3
# [8] = target: T7, human SIRPβ ECD recombinant protein (6×His tagged) (human, UniProt O00241 30-371); assay: ELISA, recombinant human SIRPβ ECD
# T7 construct: extracellular domain; Bought from Sino Biological; also called hSIRPβ ECD; not shown: 6×His tag
# T7 sequence (O00241 30-371): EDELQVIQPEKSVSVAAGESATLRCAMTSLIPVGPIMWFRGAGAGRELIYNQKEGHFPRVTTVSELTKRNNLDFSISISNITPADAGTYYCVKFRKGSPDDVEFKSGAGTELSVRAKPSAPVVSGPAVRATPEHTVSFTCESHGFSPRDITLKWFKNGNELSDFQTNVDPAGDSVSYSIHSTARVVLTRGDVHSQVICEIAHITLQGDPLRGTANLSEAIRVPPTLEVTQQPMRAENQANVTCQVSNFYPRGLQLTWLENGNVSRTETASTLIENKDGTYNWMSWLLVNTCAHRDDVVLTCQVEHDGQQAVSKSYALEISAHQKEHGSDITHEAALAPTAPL
# Source text: (§4) Binding activity of the purified chimeric antibodies against SIRPβ and SIRPBI was detected by ELISA assay using recombinant proteins of human SIRPβ ECD (FIGS. 3A and 3B), human SIRPBI ECD (FIGS. 3D and 3E) and FACS assay using CHOK 1 cells stably expressing human SIRPB (FIG. 3C).
# [9] = target: T1, C57BL/6 mouse SIRPα ECD recombinant …; assay: ELISA, recombinant C57BL/6 mouse SIRPα ECD
# Source text: Species cross reactivity of purified chimeric antibodies was detected by ELISA assay using recombinant protein of C57BL/6 mouse SIRPα ECD (FIG. 5A) and FACS assay using CHOK 1 cells stably expressing cyno SIRPα (FIGS. 5B and 5C). All antibodies as tested bind to cyno SIRPα at different levels but have no species cross reactivity against C57BL/6 mouse SIRPα.
# [10] = target: T8, human SIRPβL ECD recombinant protein (6×His tagged) (human, UniProt Q5TFQ8 30-371); assay: ELISA, hSIRPβI ECD
# T8 construct: given variously as SIRPBL, SIRPBI and SIRPβI; Bought from Biointron; also called human SIRPBL ECD; human SIRPBI ECD
# T8 sequence (Q5TFQ8 30-371 limits assumed): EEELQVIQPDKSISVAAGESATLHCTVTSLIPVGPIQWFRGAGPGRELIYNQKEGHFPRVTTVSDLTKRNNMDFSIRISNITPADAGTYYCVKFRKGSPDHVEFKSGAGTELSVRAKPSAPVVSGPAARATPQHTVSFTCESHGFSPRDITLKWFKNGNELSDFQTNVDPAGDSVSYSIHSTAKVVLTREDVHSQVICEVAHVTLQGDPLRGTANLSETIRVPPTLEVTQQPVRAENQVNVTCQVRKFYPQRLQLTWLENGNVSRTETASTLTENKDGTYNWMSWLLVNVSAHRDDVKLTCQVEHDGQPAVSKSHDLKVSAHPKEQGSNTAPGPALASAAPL
# Source text: as §4
# [11] = target: full length human SIRPα v1 with a small beta-gal fragment (ED) fused to its C-terminal, expressed in K562 … (human, UniProt P78324 31-504); assay: cell-based or functional assay
# Sequence of full length human SIRPα v1 with a small beta-gal fragment (ED) fused to its C-terminal, expressed in K562 … (P78324 31-504): as the sequence (P78324 31-504) above
binder,measurement,setting,value
"025c (antibody, V domains shown, also called chimeric antibody 025c; parental antibody of 025c) VH: EVQLQQSGAELVKPGASVKLSCTASGFNIKDYYMHWVKQRTEQGLEWIGRIDPEDGETKYAPKFQGKATITADTSSNTAYLQLSSLTSEDTAVYYCDRGLAYWGQGTLVTVSA VL: QIVLTQSPAIMSASPGEKVTLTCSASSSVSSSYLYWYQQKPGSSPKLWIYSTSNLASGVPARFSGSGSGTSYSLTISSMEAEDAASYFCHQWSSYPYTFGGGTKLEIK",% Competition,[1],15.3%
same,% Competition,[2],19.1%
same,IC50,[3],2.12 nM
same,TOP blocking (%),[3],96.5%
same,IC50,[4],2.21 nM
same,TOP blocking (%),[4],96.5%
same,EC50,[5],1.22 nM
same,TOP MFI,[5],64700 MFI
same,EC50,[6],0.65 nM
same,TOP MFI,[6],72300 MFI
same,EC50 (read off the curve),[7],~0.7 nM
same,EC50 (read off the curve),[8],~0.04 nM
same,binding result,[9],no binding
same,EC50,[10],0.33 nM
same,TOP OD450,[10],2.8 OD450
same,"SHP-1 recruitment blocking, IC50",[11],0.28 nM
same,"SHP-1 recruitment blocking, TOP blocking (%)",[11],84.5%
